Test results reported in article PMC10296906, “GPCR Binding and JNK3 Activation by Arrestin-3 Have Different Structural Requirements” (Cells, 2023).

Target: T1, LgBiT-tagged human M2 muscarinic acetylcholine receptor (human, UniProt P08172 1-466)
T1 construct: M2 muscarinic acetylcholine receptor, human, Gi-coupled; stimulated with 10 µM carbachol; also called M2R; source: HEK293 arrestin-2/3 knockout cells, transfected (pcDNA3), in live cells; not shown: LgBiT (17.6 kDa, with the 4-amino acid linker APAG), C-terminal, kept
T1 sequence (looked up): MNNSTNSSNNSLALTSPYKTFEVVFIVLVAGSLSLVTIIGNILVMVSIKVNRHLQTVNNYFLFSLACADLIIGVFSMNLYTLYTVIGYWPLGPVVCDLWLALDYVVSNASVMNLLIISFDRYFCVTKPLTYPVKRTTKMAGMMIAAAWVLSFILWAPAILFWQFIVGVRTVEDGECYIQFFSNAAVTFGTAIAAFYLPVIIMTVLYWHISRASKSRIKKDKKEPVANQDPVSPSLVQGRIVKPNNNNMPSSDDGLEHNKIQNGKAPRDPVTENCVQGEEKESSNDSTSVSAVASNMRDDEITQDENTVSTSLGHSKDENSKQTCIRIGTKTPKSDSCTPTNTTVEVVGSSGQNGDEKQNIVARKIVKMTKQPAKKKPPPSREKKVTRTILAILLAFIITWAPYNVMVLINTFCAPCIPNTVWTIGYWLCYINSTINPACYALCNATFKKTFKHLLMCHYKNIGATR
Test: split reporter (BiFC, NanoBiT); NanoBiT complementation in live HEK293 arrestin-2/3 KO cells: SmBiT-arrestin-3 and receptor-LgBiT co-expressed; luminescence read 20 min with nanoGlo substrate, then agonist added (10 µM isoproterenol for β2AR, 10 µM carbachol for M2R) and read 40 min; signal normalized to the basal signal without agonist
Details: partners not purified

agonist-induced luminescence, fold over basal: ~8 fold
B1: SmBiT-tagged WT arrestin-3 (natural protein, UniProt P32120-2 1-409, looked up)
chain: MGEKPGTRVFKKSSPNCKLTVYLGKRDFVDHLDKVDPVDGVVLVDPDYLKDRKVFVTLTCAFRYGREDLDVLGLSFRKDLFIANYQAFPPTPNPPRPPTRLQERLLRKLGQHAHPFFFTIPQNLPCSVTLQPGPEDTGKACGVDFEIRAFCAKSLEEKSHKRNSVRLVIRKVQFAPEKPGPQPSAETTRHFLMSDRSLHLEASLDKELYYHGEPLNVNVHVTNNSTKTVKKIKVSVRQYADICLFSTAQYKCPVAQVEQDDQVSPSSTFCKVYTITPLLSNNREKRGLALDGKLKHEDTNLASSTIVKEGANKEVLGILVSYRVKVKLVVSRGGDVSVELPFVLMHPKPHDHIALPRPQSAAPETDAPVDTNLIEFETNYATDDDIVFEDFARLRLKGLKDEDYDDQFC
notes: also called arr3; WT arr3; source: HEK293 arrestin-2/3 knockout cells, transfected (pcDNA3), in live cells
